Source: patent publication EP1169642B1 (THE GOVERNMENT OF THE UNITED STATES OF AMERICA, as …, dated 2006)

Target: T1, purified human complement Factor H (human, UniProt P08603 19-1231)
T1 construct: also called fH
Assay: steady state tryptophan fluorescence titration of Factor H with BSP

T1 sequence (P08603 19-1231 limits assumed): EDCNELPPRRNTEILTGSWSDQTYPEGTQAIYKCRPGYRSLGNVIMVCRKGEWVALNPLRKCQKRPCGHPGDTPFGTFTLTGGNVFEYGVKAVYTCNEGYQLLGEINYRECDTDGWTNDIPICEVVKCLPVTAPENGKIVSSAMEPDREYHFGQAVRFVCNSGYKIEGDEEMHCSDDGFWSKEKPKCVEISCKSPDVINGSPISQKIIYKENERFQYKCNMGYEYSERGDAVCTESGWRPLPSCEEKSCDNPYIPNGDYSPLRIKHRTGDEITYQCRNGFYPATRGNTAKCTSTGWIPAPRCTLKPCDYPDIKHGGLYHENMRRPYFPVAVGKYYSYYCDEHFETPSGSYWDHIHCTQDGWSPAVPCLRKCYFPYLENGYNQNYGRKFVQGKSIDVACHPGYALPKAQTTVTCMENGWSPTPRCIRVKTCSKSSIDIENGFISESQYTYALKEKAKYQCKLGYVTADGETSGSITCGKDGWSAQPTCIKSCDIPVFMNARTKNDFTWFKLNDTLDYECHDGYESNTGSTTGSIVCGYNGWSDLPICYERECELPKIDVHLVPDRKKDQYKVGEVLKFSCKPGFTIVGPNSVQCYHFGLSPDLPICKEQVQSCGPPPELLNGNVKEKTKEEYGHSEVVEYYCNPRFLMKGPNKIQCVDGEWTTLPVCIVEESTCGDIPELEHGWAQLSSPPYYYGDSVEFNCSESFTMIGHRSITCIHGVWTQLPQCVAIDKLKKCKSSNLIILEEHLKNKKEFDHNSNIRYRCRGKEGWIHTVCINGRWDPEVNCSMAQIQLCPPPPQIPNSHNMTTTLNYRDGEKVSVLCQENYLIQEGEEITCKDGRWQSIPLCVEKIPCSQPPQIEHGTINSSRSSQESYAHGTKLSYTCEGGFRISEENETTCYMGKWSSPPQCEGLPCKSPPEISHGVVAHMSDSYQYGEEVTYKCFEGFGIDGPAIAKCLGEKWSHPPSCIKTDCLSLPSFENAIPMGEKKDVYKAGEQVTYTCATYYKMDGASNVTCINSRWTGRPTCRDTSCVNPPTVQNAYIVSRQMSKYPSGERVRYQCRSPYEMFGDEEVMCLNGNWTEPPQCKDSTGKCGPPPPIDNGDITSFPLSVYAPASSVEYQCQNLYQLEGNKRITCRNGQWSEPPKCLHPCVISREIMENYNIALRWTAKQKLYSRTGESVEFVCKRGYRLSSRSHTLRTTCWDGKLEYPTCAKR

B1: human bone sialoprotein (BSP) (ligand)
chain: FSMKNLHRRVKIEDSEENGVFKYRPRYYLYKHAYFYPHLKRFPVQGSSDSSEENGDDSSEEEEEEEETSNEGENNEESNEDEDSEAENTTLSATTLGYGEDATPGTGYTGLAAIQLPKKAGDITNKATKEKESDEEEEEEEEGNENEESEAEVDENEQGINGTSTNSTEAENGNGSSGGDNGEEGEEESVTGANAEGTTETGGQGKGTSKTTTSPNGGFEPTTPPQVYRTTSPPFGKTTTVEYEGEYEYTGVNEYDNGYEIYESENGEPRGDNYRAYEDEYSYFKGQGYDGYDGQNYYHHQ
modifications: glycosylated, phosphorylated and tyrosine-sulfated glycoprotein (sites not given)
notes: Natural BSP of human serum is entered under the same molecule; also called rBSP; recombinant BSP
In the case of B1, the Kd is reported as at most 1 nM and the “stoichiometry (BSP:Factor H)” value is reported as 1 molar ratio.
